# B1: Zinc finger protein GLI2 (Mus musculus), Q0VGT2 (parent)
# chain: METSAPAPALEKKEAKSGLLEDSSFPDPGKKACPLAVAAAVAAHGVPQQLLPAFHAPLPIDMRHQEGRYHYDPHSVHSVHGPPTLSGSPVISDISLIRLSPHPAGPGESPFSAHHPYVNPHMEHYLRSVHSSPTLSMISAARGLSPADVAHEHLKERGLFSLAAPGTNPSDYYHQMTLMASHPTPYGDLLMQSGGAASAPHLHDYLNPVDASRFSSPRVTPRLSRKRALSISPLSDASLDLQRMIRTSPNSLVAYINNSRSSSAASGSYGHLSAGALSPAFTFPHPINPVAYQQILSQQRGLGSAFGHTPPLIQPSPTFLAQQPMTLTSISTMPTQLSSSSSNCLNDANQNKQNSESAVSSTVNPITIHKRSKVKTEAEGLRPASPLGLTQEQLADLKEDLDRDDCKQEAEVVIYETNCHWADCTKEYDTQEQLVHHINNEHIHGEKKEFVCRWQACTREQKPFKAQYMLVVHMRRHTGEKPHKCTFEGCSKAYSRLENLKTHLRSHTGEKPYVCEHEGCNKAFSNASDRAKHQNRTHSNEKPYICKIPGCTKRYTDPSSLRKHVKTVHGPDAHVTKKQRNDVHVRAPLLKENGDNEASAEPGGRGPEESVEASSTSHTVEDCLHIKAIKTESSGLCQSSPGAQSSCSSEPSPLGSAPNNDSGMEMPGTGPGSLGDLTALADTCPGADTSALAAPSTGGLQLRKHMSTVHRFEQLKREKLKSLKDSCSWAGPAPHTRNTKLPPLPVNGSVLENFNNTGGGGPAGLLPSQRLPELTEVTMLSQLQERRDSSTSTMSSAYTVSRRSSGISPYFSSRRSSEASPLGGLRPHNASSADSYDPISTDASRRSSEASQCSGGGPGLLNLTPAQQYNLRAKYAAATGGPPPTPLPGLDRVSLRTRLALLDAPERALPGACPHPLGPRRGSDGPTYSHGHGHGYAGAAPAFPHEGPNSSTRRASDPVRRPDPLILPRVQRFHSTHNMNPGSLPPCADRRGLHVQSHPSVDSNLTRNAYSPRPPSINENVVMEAVAAGVDGPGLECDLGLVEDELVLPDDVVQYIKAHTGGTLDDGIRQGYPTEGTGFPENSKLPSPGLQGHRRLAAADSNMGPSAPGLGGCQLSYSPSSNLNKSNMPVQWNEVSSGTVDALPTQVKPPPFPHSNLAVVQQKPAFGQYPGYNPQSVQSSSGGLDSTQPHLQLRGAPSASRGSYTQQPRQPAAGSQCLGMSAAMSPQASYSQAHPQLSPNIVSGSLNQFSPSCSNMAAKPSHLGLPQQMEVVPNATIMNGHQREHGVPNSSLAAVSQPHPVLSYPQQDSYQQGSNLLSSHQPGFMESQQNAGFGLMQPRPPLEPNTASRHRGVRSGQQQLYARTTGQAMVTSANQETAEAMPKGPAGTMVSLAPQPSQDTGRAQDQNTLYYYGQIHMYEQNGGCPAVQPQPPQPQACSDSIQPEPLPSPGVNQVSSTVDSQLLEPPQIDFDAIMDDGDHSSLFSGALSPTLLHNLSQNSSRLTTPRNSLTLPSIPAGISNMAVGDMSSMLTSLAEESKFLNMMT
# partner: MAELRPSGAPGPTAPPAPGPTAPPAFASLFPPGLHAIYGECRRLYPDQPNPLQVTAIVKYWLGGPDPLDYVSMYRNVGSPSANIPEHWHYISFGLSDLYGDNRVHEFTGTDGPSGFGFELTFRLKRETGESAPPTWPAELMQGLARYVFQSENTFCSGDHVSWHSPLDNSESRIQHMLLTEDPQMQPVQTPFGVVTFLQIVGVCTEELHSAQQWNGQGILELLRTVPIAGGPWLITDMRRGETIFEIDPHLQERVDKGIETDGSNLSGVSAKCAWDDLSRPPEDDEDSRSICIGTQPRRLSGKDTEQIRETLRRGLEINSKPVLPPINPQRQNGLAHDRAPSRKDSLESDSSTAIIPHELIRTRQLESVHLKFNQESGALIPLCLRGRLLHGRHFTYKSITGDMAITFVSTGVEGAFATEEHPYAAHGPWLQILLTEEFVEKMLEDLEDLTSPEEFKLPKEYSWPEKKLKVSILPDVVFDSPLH
# B2: Suppressor of fused homolog (Homo sapiens), Q9UMX1 (parent)
# chain: B1 partner
# B3: Zinc finger protein GLI1 (Homo sapiens), P08151 (parent)
# chain: MFNSMTPPPISSYGEPCCLRPLPSQGAPSVGTEGLSGPPFCHQANLMSGPHSYGPARETNSCTEGPLFSSPRSAVKLTKKRALSISPLSDASLDLQTVIRTSPSSLVAFINSRCTSPGGSYGHLSIGTMSPSLGFPAQMNHQKGPSPSFGVQPCGPHDSARGGMIPHPQSRGPFPTCQLKSELDMLVGKCREEPLEGDMSSPNSTGIQDPLLGMLDGREDLEREEKREPESVYETDCRWDGCSQEFDSQEQLVHHINSEHIHGERKEFVCHWGGCSRELRPFKAQYMLVVHMRRHTGEKPHKCTFEGCRKSYSRLENLKTHLRSHTGEKPYMCEHEGCSKAFSNASDRAKHQNRTHSNEKPYVCKLPGCTKRYTDPSSLRKHVKTVHGPDAHVTKRHRGDGPLPRAPSISTVEPKREREGGPIREESRLTVPEGAMKPQPSPGAQSSCSSDHSPAGSAANTDSGVEMTGNAGGSTEDLSSLDEGPCIAGTGLSTLRRLENLRLDQLHQLRPIGTRGLKLPSLSHTGTTVSRRVGPPVSLERRSSSSSSISSAYTVSRRSSLASPFPPGSPPENGASSLPGLMPAQHYLLRARYASARGGGTSPTAASSLDRIGGLPMPPWRSRAEYPGYNPNAGVTRRASDPAQAADRPAPARVQRFKSLGCVHTPPTVAGGGQNFDPYLPTSVYSPQPPSITENAAMDARGLQEEPEVGTSMVGSGLNPYMDFPPTDTLGYGGPEGAAAEPYGARGPGSLPLGPGPPTNYGPNPCPQQASYPDPTQETWGEFPSHSGLYPGPKALGGTYSQCPRLEHYGQVQVKPEQGCPVGSDSTGLAPCLNAHPSEGPPHPQPLFSHYPQPSPPQYLQSGPYTQPPPDYLPSEPRPCLDFDSPTHSTGQLKAQLVCNYVQSQQELLWEGGGREDAPAQEPSYQSPKFLGGSQVSPSRAKAPVNTYGPGFGPNLPNHKSGSYPTPSPCHENFVVGANRASHRAAAPPRLLPPLPTCYGPLKVGGTNPSCGHPEVGRLGGGPALYPPPEGQVCNPLDSLDLDNTQLDFVAILDEPQGLSPPPSHDQRGSSGHTPPPSGPPNMAVGNMSVLLRSLPGETEFLNSSA
# partner: B1 partner
# Variants of: B1
# Settings: with sufu_human SUFU, Q9UMX1
row,effect of a mutation on the interaction,Variant
1,disrupting interaction,G270A;H271A;L272D
2,disrupting interaction,G270V;H271E;L272D

# Variants of: B2
# Settings: with gli1_human GLI1, P08151
row,effect of a mutation on the interaction,Variant
1,decreasing interaction,Y147R;F155A
2,disrupting interaction,Y147R;D159R
3,disrupting interaction,Y147R;F155A;D159R;L380R
4,disrupting interaction,Y147R;D159R;L380R
5,disrupting interaction,Y147R;F155A;D159A;L380R

# Variants of: B2
# Settings: with gli1_human GLI1, P08151
# Remark: another data set of the same source
row,Variant,effect of a mutation on the interaction
1,Y147R;F155A,disrupting interaction
2,D159R,disrupting interaction

# Now from value to variant:
row,effect of a mutation on the interaction,Variant
1,disrupting interaction,Y147R;F155A;D159R
2,disrupting interaction,D159A

# Variants of: B2
# Settings: with gli2_mouse Gli2, Q0VGT2
row,effect of a mutation on the interaction,Variant
1,decreasing interaction,L380R
2,decreasing interaction,D159R
3,disrupting interaction,Y147R;D159R;L380R

# Variants of: B2
# Settings: with gli2_mouse Gli2, Q0VGT2
# Remark: another data set of the same source
row,effect of a mutation on the interaction,Variant
1,disrupting interaction,L380R
2,disrupting interaction,D159R

# Variants of: B3
# Settings: with sufu_human SUFU, Q9UMX1
row,effect of a mutation on the interaction,Variant
1,decreasing interaction,G122A;H123A;L124D
